Test results published in patent US20260055210A1 (MONTEFIORE MEDICAL CENTER, published 2026).
Each block holds one binder with its values, some of them ahead of it.

Molecular target: T1, Human IgG1 Fc (human, UniProt P01857-1 100-330 = IgG part, limits assumed)
T1 construct: domain: Fc; Negative control; also called human IgG1 Fc domain
Assay: flow cytometry, percent of bound cells, cMPL-expressing HEK293 cells
Description: To study the binding capabilities of the fusion polypeptide provided herein to thrombopoietin receptors, the fusion polypeptides were contacted with cells expressing thrombopoietin receptor cMPL. Mouse or human thrombopoietin receptor cMPL was expressed on the surface of Freestyle™ HEK293 cell line. Mouse or human thrombopoietin receptor cMPL were expressed as a fusion polypeptide with either GPF or mCherry. Expression of cMPL receptors was confirmed by measuring fluorescent signal. As a general control, PD1 protein binding to PDL1-expressing cells was used. Human IgG1 Fc and secondary antibody were used as a negative control since they would not be expected to bind to cMPL. […] The cMPL expressing cells were treated with Nplate (Romiplostim) as the positive control. FLT3L-romiplostim fusion polypeptide with a His-Tag, FLT3L-romiplostim fusion polypeptide without a His-Tag were tested. Binding was analyzed using a fluorescent secondary antibody against IgG1 domain of the polypeptide. The percentages of cells bound to the tested polypeptide were quantified.

binding result: no binding
B1: human thrombopoietin receptor cMPL expressed on the surface of Freestyle HEK293 cells (receptor, UniProt P40238 26-635, looked up)
chain: QDVSLLASDSEPLKCFSRTFEDLTCFWDEEEAAPSGTYQLLYAYPREKPRACPLSSQSMPHFGTRYVCQFPDQEEVRLFFPLHLWVKNVFLNQTRTQRVLFVDSVGLPAPPSIIKAMGGSQPGELQISWEEPAPEISDFLRYELRYGPRDPKNSTGPTVIQLIATETCCPALQRPHSASALDQSPCAQPTMPWQDGPKQTSPSREASALTAEGGSCLISGLQPGNSYWLQLRSEPDGISLGGSWGSWSLPVTVDLPGDAVALGLQCFTLDLKNVTCQWQQQDHASSQGFFYHSRARCCPRDRYPIWENCEEEEKTNPGLQTPQFSRCHFKSRNDSIIHILVEVTTAPGTVHSYLGSPFWIHQAVRLPTPNLHWREISSGHLELEWQHPSSWAAQETCYQLRYTGEGHQDWKVLEPPLGARGGTLELRPRSRYRLQLRARLNGPTYQGPWSSWSDPTRVETATETAWISLVTALHLVLGLSAVLGLLLLRWQFPAHYRRLRHALWPSLPDLHRVLGQYLRDTAALSPPKATVSDTCEEVEPSLLEILPKSSERTPLPLCSSQAQMDYRRLQPSCLGTMPLSVCPPMAESGSCCTTHIANHSYLPLSYWQQP
notes: whole, on cells; also called human cMPL; human cMLP; not shown: Fused with either GFP (printed 'GPF') or mCherry

binding result: no binding
B2: mouse thrombopoietin receptor cMPL expressed on the surface of Freestyle HEK293 cells (receptor, UniProt Q08351 26-625, looked up)
chain: QDVFLLALGTEPLNCFSQTFEDLTCFWDEEEAAPSGTYQLLYAYRGEKPRACPLYSQSVPTFGTRYVCQFPAQDEVRLFFPLHLWVKNVSLNQTLIQRVLFVDSVGLPAPPRVIKARGGSQPGELQIHWEAPAPEISDFLRHELRYGPTDSSNATAPSVIQLLSTETCCPTLWMPNPVPVLDQPPCVHPTASQPHGPAPFLTVKGGSCLVSGLQAGKSYWLQLRSQPDGVSLRGSWGPWSFPVTVDLPGDAVTIGLQCFTLDLKMVTCQWQQQDRTSSQGFFRHSRTRCCPTDRDPTWEKCEEEEPRPGSQPALVSRCHFKSRNDSVIHILVEVTTAQGAVHSYLGSPFWIHQAVLLPTPSLHWREVSSGRLELEWQHQSSWAAQETCYQLRYTGEGREDWKVLEPSLGARGGTLELRPRARYSLQLRARLNGPTYQGPWSAWSPPARVSTGSETAWITLVTALLLVLSLSALLGLLLLKWQFPAHYRRLRHALWPSLPDLHRVLGQYLRDTAALSPSKATVTDSCEEVEPSLLEILPKSSESTPLPLCPSQPQMDYRGLQPCLRTMPLSVCPPMAETGSCCTTHIANHSYLPLSYWQQP
notes: whole, on cells; also called mouse cMPL; mouse cMLP; not shown: Fused with either GFP (printed 'GPF') or mCherry
